This passage reports stoichiometry N and Kd results from article doi:10.1101/2020.02.11.944462.

pKd: −log10 of the molar value.

Test [1] addresses 2019-nCoV S prefusion-stabilized ectodomain (residues 1-1208, two proline substitutions, GSAS at the (2019-nCoV | bacteriophage T4)). Briefly: cryo-EM structure.
The target is the same in test [2]. Briefly: SPR; […], Biacore X100; 10 mM HEPES pH 8.0, 150 mM NaCl, 0.05% Tween 20; […]; 1:1 binding model. (In SPR one partner is held on a chip, and binding of the other changes the refractive index at the surface.)

human angiotensin-converting enzyme 2 (ACE2), residues 1-615, untagged, sequence (Q9BYF1 18-615): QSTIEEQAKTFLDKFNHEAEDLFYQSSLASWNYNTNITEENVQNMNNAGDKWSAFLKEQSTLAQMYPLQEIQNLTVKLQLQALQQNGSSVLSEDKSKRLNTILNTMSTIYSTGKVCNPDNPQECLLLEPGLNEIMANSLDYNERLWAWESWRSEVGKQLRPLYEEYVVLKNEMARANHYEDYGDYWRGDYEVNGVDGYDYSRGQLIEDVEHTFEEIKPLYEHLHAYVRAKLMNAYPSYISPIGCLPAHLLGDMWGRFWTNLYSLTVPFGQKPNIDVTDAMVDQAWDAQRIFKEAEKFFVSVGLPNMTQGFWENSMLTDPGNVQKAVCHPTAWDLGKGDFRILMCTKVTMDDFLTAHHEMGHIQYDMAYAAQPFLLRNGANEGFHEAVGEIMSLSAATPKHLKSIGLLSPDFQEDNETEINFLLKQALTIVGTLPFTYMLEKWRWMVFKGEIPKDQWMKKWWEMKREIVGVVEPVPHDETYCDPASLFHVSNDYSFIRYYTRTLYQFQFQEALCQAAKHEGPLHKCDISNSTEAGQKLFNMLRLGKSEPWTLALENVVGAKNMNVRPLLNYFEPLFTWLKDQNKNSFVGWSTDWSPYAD

As a reminder, the stoichiometry N is a count of units in the complex or per binding partner. In test [1], “2019-nCoV S prefusion-stabilized ectodomain (residues 1-1208, two proline substitutions, GSAS at the (domain or fragment)” showed a stoichiometry N of 3.
The pKd is the negative decadic logarithm of the Kd, by convention in mol/L. A higher pKd goes with a low Kd. Consider “human angiotensin-converting enzyme 2 (ACE2), residues 1-615, untagged (from UniProt Q9BYF1 18-615) (receptor)”, for which the pKd in test [2] was 7.82.
